The results in this text go back to US20060029603A1 (GlaxoSmithKline, published 2006).

A word on the koff: it is the rate constant with which the complex falls apart. Low values mean slow dissociation, high ones fast dissociation. Usually Kd stands for the concentration at which binding is half-saturated. By kon is commonly meant the rate constant with which the complex forms.

The labels stand for the following.
B1: H6L14 (antibody, human IgG1, kappa)
heavy: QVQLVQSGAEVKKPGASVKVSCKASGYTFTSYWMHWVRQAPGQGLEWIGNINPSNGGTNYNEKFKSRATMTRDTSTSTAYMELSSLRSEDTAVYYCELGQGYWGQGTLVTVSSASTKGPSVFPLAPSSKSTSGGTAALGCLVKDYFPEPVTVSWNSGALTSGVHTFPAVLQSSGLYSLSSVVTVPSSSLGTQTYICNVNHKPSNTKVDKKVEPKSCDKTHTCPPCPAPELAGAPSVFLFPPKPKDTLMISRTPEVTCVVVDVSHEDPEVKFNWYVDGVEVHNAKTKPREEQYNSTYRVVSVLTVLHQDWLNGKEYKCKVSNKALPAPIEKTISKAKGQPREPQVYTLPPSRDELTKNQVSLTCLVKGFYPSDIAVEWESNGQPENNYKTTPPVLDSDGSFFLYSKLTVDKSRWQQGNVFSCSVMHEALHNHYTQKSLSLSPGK
light: DIVMTQSPLSLPVTLGQPASISCRSSKSLLYKDGKTYLNWFLQRPGQSPQLLIYLMSTRASGVPDRFSGGGSGTDFTLKISRVEAEDVGVYYCQQLVEYPLTFGQGTKLEIKRTVAAPSVFIFPPSDEQLKSGTASVVCLLNNFYPREAKVQWKVDNALQSGNSQESVTEQDSKDSTYSLSSTLTLSKADYEKHKVYACEVTHQGLSSPVTKSFNRGEC
notes: Tested as CHO-K1 supernatant
B2: H14L13 (antibody, human IgG1, kappa, V domains shown)
VH: QVQLVQSGAEVVKPGASVKLSCKASGYTFTSYWMHWVKQAPGQGLEWIGNINPSNGGTNYNEKFKSRATLTRDTSTSTAYMELSSLRSEDTAVYYCELGQGYWGQGTLVTVSS
VL: DIVMTQSPLSLPVTLGQPASISCRSSKSLLYKDGKTYLNWFQQRPGQSPQLLIYLMSTRASGVPDRFSGGGSGTDFTLKISRVEAEDVGVYYCQQLVEYPLTFGQGTKLEIKR
notes: Tested as CHO-K1 supernatant
B3: H6L16 (antibody, human IgG1, kappa)
heavy: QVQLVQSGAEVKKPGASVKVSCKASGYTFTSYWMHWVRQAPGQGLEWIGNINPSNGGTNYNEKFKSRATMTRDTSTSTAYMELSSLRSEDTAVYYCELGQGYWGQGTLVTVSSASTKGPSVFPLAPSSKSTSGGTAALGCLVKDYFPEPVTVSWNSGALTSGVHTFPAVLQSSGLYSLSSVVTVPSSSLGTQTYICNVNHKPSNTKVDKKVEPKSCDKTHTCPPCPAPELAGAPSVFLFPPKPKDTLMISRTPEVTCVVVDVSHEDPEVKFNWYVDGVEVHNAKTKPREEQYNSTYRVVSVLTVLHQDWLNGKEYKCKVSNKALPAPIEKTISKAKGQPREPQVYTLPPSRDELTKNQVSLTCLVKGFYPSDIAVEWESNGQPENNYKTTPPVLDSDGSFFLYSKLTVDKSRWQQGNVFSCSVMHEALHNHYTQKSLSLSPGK
light: DIVMTQSPLSNPVTLGQPVSISCRSSKSLLYKDGKTYLNWFLQRPGQSPQLLIYLMSTRASGVPDRFSGGGSGTDFTLKISRVEAEDVGVYYCQQLVEYPLTFGQGTKLEIKRTVAAPSVFIFPPSDEQLKSGTASVVCLLNNFYPREAKVQWKVDNALQSGNSQESVTEQDSKDSTYSLSSTLTLSKADYEKHKVYACEVTHQGLSSPVTKSFNRGEC
notes: Tested as CHO-K1 supernatant
B4: H14L18 (antibody, human IgG1, kappa, V domains shown)
VH: QVQLVQSGAEVVKPGASVKLSCKASGYTFTSYWMHWVKQAPGQGLEWIGNINPSNGGTNYNEKFKSRATLTRDTSTSTAYMELSSLRSEDTAVYYCELGQGYWGQGTLVTVSS
VL: DIVMTQDPLSNPVTLGQPVSISCRSSKSLLYKDGKTYLNWFLQRPGQSPQLLIYLMSTRASGVSDRFSGSGSGTDFTLKISRVEAEDVGVYYCQQLVEYPLTFGQGTKLEIKR
B5: H18L13 (antibody, human IgG1, kappa, V domains shown)
VH: QVQLVQSGAEVVKPGASVKLSCKASGYTFTSYWMHWVKQRPGQGLEWIGNINPSNGGTNYNEKFKSKATLTVDKSSSTAYMELSSLRSEDSAVYYCELGQGYWGQGTLVTVSS
VL: DIVMTQSPLSLPVTLGQPASISCRSSKSLLYKDGKTYLNWFQQRPGQSPQLLIYLMSTRASGVPDRFSGGGSGTDFTLKISRVEAEDVGVYYCQQLVEYPLTFGQGTKLEIKR
notes: Tested as CHO-K1 supernatant
B6: H6L15 (antibody, human IgG1, kappa, V domains shown)
VH: QVQLVQSGAEVKKPGASVKVSCKASGYTFTSYWMHWVRQAPGQGLEWIGNINPSNGGTNYNEKFKSRATMTRDTSTSTAYMELSSLRSEDTAVYYCELGQGYWGQGTLVTVSS
VL: DIVMTQSPLSLPVTLGQPASISCRSSKSLLYKDGKTYLNWFLQRPGQSPQLLIYLMSTRASGVSDRFSGGGSGTDFTLKISRVEAEDVGVYYCQQLVEYPLTFGQGTKLEIKR
notes: Tested as CHO-K1 supernatant
B7: H6L17 (antibody, human IgG1, kappa, V domains shown)
VH: QVQLVQSGAEVKKPGASVKVSCKASGYTFTSYWMHWVRQAPGQGLEWIGNINPSNGGTNYNEKFKSRATMTRDTSTSTAYMELSSLRSEDTAVYYCELGQGYWGQGTLVTVSS
VL: DIVMTQDPLSLPVTLGQPASISCRSSKSLLYKDGKTYLNWFQQRPGQSPQLLIYLMSTRASGVSDRFSGSGSGTDFTLKISRVEAEDVGVYYCQQLVEYPLTFGQGTKLEIKR
notes: Tested as CHO-K1 supernatant
B8: H15L16 (antibody, human IgG1, kappa, V domains shown)
VH: QVQLVQSGAEVVKPGASVKLSCKASGYTFTSYWMHWVKQRPGQGLEWIGNINPSNGGTNYNEKFKSKATLTVDTSSSTAYMELSSLRSEDSAVYYCELGQGYWGQGTLVTVSS
VL: DIVMTQSPLSNPVTLGQPVSISCRSSKSLLYKDGKTYLNWFLQRPGQSPQLLIYLMSTRASGVPDRFSGGGSGTDFTLKISRVEAEDVGVYYCQQLVEYPLTFGQGTKLEIKR
notes: Tested as CHO-K1 supernatant
B9: H17L16 (antibody, human IgG1, kappa)
heavy: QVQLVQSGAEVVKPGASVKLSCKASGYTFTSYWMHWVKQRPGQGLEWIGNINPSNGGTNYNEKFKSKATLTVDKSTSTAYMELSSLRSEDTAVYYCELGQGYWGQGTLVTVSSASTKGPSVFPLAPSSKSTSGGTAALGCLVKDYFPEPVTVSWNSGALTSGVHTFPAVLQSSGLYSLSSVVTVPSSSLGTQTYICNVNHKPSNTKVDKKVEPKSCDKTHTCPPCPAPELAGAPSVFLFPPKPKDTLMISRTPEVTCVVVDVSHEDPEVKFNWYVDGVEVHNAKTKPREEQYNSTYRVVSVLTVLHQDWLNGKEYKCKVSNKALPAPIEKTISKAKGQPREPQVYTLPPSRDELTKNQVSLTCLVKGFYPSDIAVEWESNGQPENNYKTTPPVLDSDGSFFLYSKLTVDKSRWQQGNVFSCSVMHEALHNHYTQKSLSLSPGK
light: DIVMTQSPLSNPVTLGQPVSISCRSSKSLLYKDGKTYLNWFLQRPGQSPQLLIYLMSTRASGVPDRFSGGGSGTDFTLKISRVEAEDVGVYYCQQLVEYPLTFGQGTKLEIKRTVAAPSVFIFPPSDEQLKSGTASVVCLLNNFYPREAKVQWKVDNALQSGNSQESVTEQDSKDSTYSLSSTLTLSKADYEKHKVYACEVTHQGLSSPVTKSFNRGEC
notes: Humanised 2A10
B10: H700L11 (antibody, human IgG1, kappa, V domains shown)
VH: QVQLVQSGAEVKKPGASVKVSCKASGYTFTSYWMHWVRQAPGQGLEWIGNINPSNGGTNYNEKFKSRATLTVDKSTSTAYMELSSLRSEDTAVYYCELGQGYWGQGTLVTVSS
VL: DIVITQSPLSLPVTLGQPASISCRSSKSLLYKDGKTYLNWFQQRPGQSPQLLIYLMSTRASGVPDRFSGGGSGTDFTLKISRVEAEDVGVYYCQQLVEYPLTFGQGTKLEIKR
B11: HcL13 (antibody, human IgG1, kappa)
heavy: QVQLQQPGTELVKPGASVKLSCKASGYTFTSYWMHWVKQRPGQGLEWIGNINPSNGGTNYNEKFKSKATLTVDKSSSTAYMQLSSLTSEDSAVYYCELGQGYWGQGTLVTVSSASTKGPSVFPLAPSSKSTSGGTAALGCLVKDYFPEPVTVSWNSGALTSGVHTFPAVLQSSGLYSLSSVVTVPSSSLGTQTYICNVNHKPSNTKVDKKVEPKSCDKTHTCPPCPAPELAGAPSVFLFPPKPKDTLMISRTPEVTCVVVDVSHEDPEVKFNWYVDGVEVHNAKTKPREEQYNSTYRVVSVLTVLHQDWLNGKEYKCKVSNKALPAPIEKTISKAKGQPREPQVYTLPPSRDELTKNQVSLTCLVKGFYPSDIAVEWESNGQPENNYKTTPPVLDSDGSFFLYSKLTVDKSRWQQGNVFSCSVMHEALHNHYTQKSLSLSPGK
light: DIVMTQSPLSLPVTLGQPASISCRSSKSLLYKDGKTYLNWFQQRPGQSPQLLIYLMSTRASGVPDRFSGGGSGTDFTLKISRVEAEDVGVYYCQQLVEYPLTFGQGTKLEIKRTVAAPSVFIFPPSDEQLKSGTASVVCLLNNFYPREAKVQWKVDNALQSGNSQESVTEQDSKDSTYSLSSTLTLSKADYEKHKVYACEVTHQGLSSPVTKSFNRGEC
notes: Chimeric heavy chain Hc paired with humanised light chain L13; The pairing is read from the name
B12: HcL11 (antibody, human IgG1, kappa)
heavy: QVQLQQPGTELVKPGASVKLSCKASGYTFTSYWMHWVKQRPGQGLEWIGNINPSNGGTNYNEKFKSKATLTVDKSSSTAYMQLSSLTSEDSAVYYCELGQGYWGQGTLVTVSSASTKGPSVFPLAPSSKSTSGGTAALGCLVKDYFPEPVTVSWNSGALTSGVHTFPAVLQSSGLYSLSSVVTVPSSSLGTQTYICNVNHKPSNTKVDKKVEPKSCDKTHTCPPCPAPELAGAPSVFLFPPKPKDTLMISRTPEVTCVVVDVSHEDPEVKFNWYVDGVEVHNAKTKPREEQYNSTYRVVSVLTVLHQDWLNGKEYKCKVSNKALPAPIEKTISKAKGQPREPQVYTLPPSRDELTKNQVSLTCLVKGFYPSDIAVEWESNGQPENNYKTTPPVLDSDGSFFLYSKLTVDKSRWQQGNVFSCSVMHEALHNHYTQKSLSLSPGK
light: DIVITQSPLSLPVTLGQPASISCRSSKSLLYKDGKTYLNWFQQRPGQSPQLLIYLMSTRASGVPDRFSGGGSGTDFTLKISRVEAEDVGVYYCQQLVEYPLTFGQGTKLEIKRTVAAPSVFIFPPSDEQLKSGTASVVCLLNNFYPREAKVQWKVDNALQSGNSQESVTEQDSKDSTYSLSSTLTLSKADYEKHKVYACEVTHQGLSSPVTKSFNRGEC
notes: Chimeric heavy chain Hc paired with humanised light chain L11; The pairing is read from the name
B13: H6L6 (antibody, human IgG1, kappa, V domains shown)
VH: QVQLVQSGAEVKKPGASVKVSCKASGYTFTSYWMHWVRQAPGQGLEWIGNINPSNGGTNYNEKFKSRATMTRDTSTSTAYMELSSLRSEDTAVYYCELGQGYWGQGTLVTVSS
VL: DIVMTQSPLSLPVTPGEPASISCRSSKSLLYKDGKTYLNWFLQRPGQSPQLLIYLMSTRASGVPDRFSGSGSGTDFTLKISRVEAEDVGVYYCQQLVEYPLTFGGGTKVEIKR
B14: H10L13 (antibody, V domains shown)
VH: QVQLVQSGAEVKKPGASVKLSCKASGYTFTSYWMHWVKQAPGQGLEWIGNINPSNGGTNYNEKFKSRATLTVDKSTSTAYMELSSLRSEDTAVYYCELGQGYWGQGTLVTVSS
VL: DIVMTQSPLSLPVTLGQPASISCRSSKSLLYKDGKTYLNWFQQRPGQSPQLLIYLMSTRASGVPDRFSGGGSGTDFTLKISRVEAEDVGVYYCQQLVEYPLTFGQGTKLEIK
B15: H5L6 (antibody, human IgG1, kappa, V domains shown)
VH: QVQLVQSGAEVKKPGASVKVSCKASGYTFTSYWMHWVRQAPGQGLEWMGNINPSNGGTNYNEKFKSRVTMTRDTSTSTAYMELSSLRSEDTAVYYCELGQGYWGQGTLVTVSS
VL: DIVMTQSPLSLPVTPGEPASISCRSSKSLLYKDGKTYLNWFLQRPGQSPQLLIYLMSTRASGVPDRFSGSGSGTDFTLKISRVEAEDVGVYYCQQLVEYPLTFGGGTKVEIKR

One assay deals with T1, GST-human NOGO-A56 (human, UniProt P08515 1-218 = GST).
T1 construct: GST-tagged fusion expressed in E. coli BL21 and purified on glutathione-sepharose; coated on ELISA plates or amine-coupled to a CM5 chip; also called hNOGO; recombinant human NOGO
T1 sequence (P08515 1-218, tags or fused parts left off): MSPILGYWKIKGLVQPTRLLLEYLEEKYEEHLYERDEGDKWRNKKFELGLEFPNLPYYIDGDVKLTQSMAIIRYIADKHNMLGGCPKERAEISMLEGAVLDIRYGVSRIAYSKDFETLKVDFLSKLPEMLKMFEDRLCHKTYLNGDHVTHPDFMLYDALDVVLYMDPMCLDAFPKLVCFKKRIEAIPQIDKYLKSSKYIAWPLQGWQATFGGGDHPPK
Nature of the assay: SPR (Biacore) off-rate ranking, CHO-K1 transient supernatant over GST-human NOGO-A56 chip; single experiment. The protocol:
(§1) hNOGO (GST-human NOGO-A56) was immobilised to a CM5 chip by primary amine coupling using the Biacore Wizard program designed for targeted immobilisation levels. The CM5 sensor surface was activated by passing a solution of 50 mM N-hydroxy-succinimide (NHS) and 200 mM N-ethyl-N′-dimethylaminopropyl […] (EDC). Then hNOGO in sodium acetate buffer, pH5.0 or pH 4.5, was passed over the chip and immobilised. After immobilisation was complete any still activated esters were blocked by an injection of 1M ethanolamine hydrochloride, pH8.5.
The hNOGO chip was prepared as for kinetic analysis. Cell supernatants where taken directly from transient transfections of CHO-K1 cells. These were passed directly over the sensor surface and the interaction measured. A mock transfected cell supernatant was used for double referencing to remove any artefacts due to the tissue culture media. All runs were referenced against a blanked sensor surface (one that had been activated and blocked as described earlier but had no addition of ligand). Analysis of binding was carried out using the BIAevaluation kinetic analysis software version 4.1.
(In general: In SPR one partner is held on a chip, and binding of the other changes the refractive index at the surface.)
Molecule B1 gave a dissociation rate constant (koff) of 0.0457 s⁻¹.
In turn, B2 had a koff of 0.0138 s⁻¹.
B3 had an off-rate (koff) of 0.0114 s⁻¹.
Same read-out and setting: with B4 the figure was 0.00835 s⁻¹; with B5, 0.00907 s⁻¹.
Turning to B6, the koff is 0.0211 s⁻¹.
The same measure, in the same setting: with B7 the figure was 0.0158 s⁻¹; with B8, 0.00604 s⁻¹.

For a further assay, the target named is T1, GST-human NOGO-A56. Nature of the assay: SPR (Biacore 3000), GST-human NOGO-A56 on CM5, antibody as analyte; single experiment. The protocol: (§2) The binding kinetics of the anti-NOGO monoclonal antibody (mAb) to recombinantly expressed human NOGO-A (GST-human NOGO-A56) was analysed using the Biacore3000 biosensor. The hNOGO-A chip was prepared as follows:
as §1
(§3) The anti-NOGO mAbs were diluted down in HBS-EP (10 mM HEPES, pH 7.4, 150 mM NaCl, 3 mM EDTA, and 0.005% P-20 surfactant) and binding studies were carried out at range of defined antibody concentrations. All runs were referenced against a blanked sensor surface (one that had been activated and blocked as described earlier but had no addition of ligand). Analysis of binding was carried out using the BIAevaluation kinetic analysis software version 4.1. Biacore analysis of other antibodies of the invention essentially followed the same protocol as described herein.
Turning to B4, binding was characterised by a dissociation constant (Kd) of 3.6 nM, the off-rate constant (koff) turned out to be 0.00869 s⁻¹ and the kon stood at 2.41e+06 M⁻¹ s⁻¹.

A further assay concerns the target T1, GST-human NOGO-A56. Nature of the assay: SPR (Biacore 3000), GST-human NOGO-A56 amine-coupled to CM5, antibody as analyte; mean (SD) of four experiments. The protocol:
as §2, §1, §3
In turn, B9 returned a dissociation constant Kd of 1.82 nM, a koff of 0.0061 s⁻¹ and a kon of 3.38e+06 M⁻¹ s⁻¹.

For the next assay, the target named is T1, GST-human NOGO-A56. Nature of the assay: SPR (Biacore 3000), GST-human NOGO-A56 on CM5, antibody as analyte; single experiment. This is another data set of the same source. The protocol: as §1, §3
B10 yielded a Kd of 19.4 nM, an off-rate (koff) of 0.0233 s⁻¹ and a kon of 1.19e+06 M⁻¹ s⁻¹.
Regarding B11, the Kd is 1.98 nM, the koff worked out at 0.00938 s⁻¹ and the kon was 4.8e+06 M⁻¹ s⁻¹.
For B12, the dissociation constant (Kd) is 3.55 nM, the koff was determined as 0.0134 s⁻¹ and the kon is 3.78e+06 M⁻¹ s⁻¹.
The like results for B13 were, in that order, 21.4 nM, 0.0254 s⁻¹ and 1.2e+06 M⁻¹ s⁻¹.
B14 yielded a Kd of 12.9 nM, a dissociation rate constant (koff) of 0.0212 s⁻¹ and a kon of 1.64e+06 M⁻¹ s⁻¹.
B15 showed a Kd of 30.3 nM, an off-rate (koff) of 0.047 s⁻¹ and an association rate constant (kon) of 1.5e+06 M⁻¹ s⁻¹.
